# Assay: yeast display, Sf9 membrane polyspecificity reagent, FACS + sequencing; frameworks hold sequencing errors
# In short: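 A nanobody's polyreactivity label depends on the gate it was sorted from. Yeast display cells were stained with 10% biotinylated, detergent-solubilized Sf9 membrane reagent for 1 hour at 4 °C, enriched on streptavidin microbeads and sorted by FACS. The low and high (top ~1%) gates were set on anti-HA fluorescence for expression and streptavidin fluorescence for reagent binding.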
row,Sequence,polyreactivity (PSR sort gate)
1,QVQLVESGGGLVQAGGSLRLSCAASGSIFYRNAMGWYRQAPGKERELVAAISWSGASTSYADSVKGRFTISPDNAKNTVYLQMNSLIPDATAVYYCNAGKYAYLWLKLFAPKLDYWGQGTQVTVSS,low polyreactivity
2,QVQLVESGGGLVQAGGSLRLSCAASGRTFPYYAMGWYRQAPGKERELVARITSGSGTYYADSVKGRFTISRDNAKNTVYLQMNSLKPEDTAVYYCAAREPGVGYVGHYTGLDYWGQGTQVTVSS,low polyreactivity
3,QVQLVESGGGLVQAGGSLRLSCAASGFTFSPYTMGWYRQAPGKEWELVATIRYDGTSTYYADSVKGRFTISRDNAKNTVFLQMNSLKPEDTEVYYCAADIWRVYSTIYYWGQGTQVTVSS,low polyreactivity
4,QVQLVESGGGLVQAGGSLRLSCAASGITFVGNAMGWYRQAPGKERELVAGIRGNGGSTYYADSVKGRFTISRDNAKYTVYLQMNSLKPEDTAVYYCAAAAYYADFDYWGQGTQVTVSS,low polyreactivity
5,QVQLVESAGGLVQAGGSLRLSCGASGRIFGWYALGWSRQAPGKERQLVAAITRSGGSTFYADSVKGRFTISRDNAKNTVYLQMHSLKPDDTAVYYCNARYFNGRHKHYYWGQGTQVTVSS,high polyreactivity
6,QVQLVESGGGLVQAGGSLRLSCAASGFIFYQYAMGWYRQAPGKERELVAAISRSGGSTYYADSVKGRFTISRDNAKNTVYLQMNSLKPEDTAVYYCNAVYRSIRPRYDYWGQGTQVTVSS,high polyreactivity
7,QVQLVESGGGLVQAGGRLRLSCAASGSFFGGSGMGWYRQAPGKERELVAAITSGSSTYYADSVNGRFTISRDNAKNTVYLQMNSLKPEDSAVYYCAARPYPHSAYEGDYWGRGTQVTVSS,low polyreactivity
8,QVQLVESGGGLVQAGGSLRLSCAASGSIQYYAMGWYRHAPGKERELVAAIRFSGGRTYYADSVKGRFTISRDNAKITVYLQMHSLKPEHTAVYYCAAYRSPRRSGAPSQGKFDYCGQGTQVTVSS,low polyreactivity
9,QVQLVESGGRLVQAGGSLRFSCAASGGIFESYAMGGYRQAPGQERELVASISSGGSTYYADSVKGRFTISRDNAKNTVYLQMNSLKPEDTAVYYCNTDNGSHGMDYWGQGTQVTVSS,low polyreactivity
10,QVQLVESGGGLVQAGGSLRLSCAASGSIFGVYAMGWYRQAPGKESELVATITWRGGSTYYADSVKGRFTISRDNAKNTVYLQMNSLKPEDTSVYYCNARYKWGYYSRYDYWGQGTQVTVSS,high polyreactivity
11,QVQLVESGGGLVQAGGSLRLSCAAYGRIFGVYAMGWYRPAPGKERELVAAIERRGGTTYYADSVKGRITISRDMAKNTVYLQLNSLKPEDTAVYYCATGSIAAGHYAYNYWGQGTQVTVSS,high polyreactivity
12,QVQLVESGGGLVQAGGSLRLSCAASGRIFYRYAMGWYRQAPGKERELVASISGSGGRTYYADSVKGRFTISRDNAKNTVYLQMNSLKPEDTAVYYCAARIRPSYDWGQGTQVTVSS,high polyreactivity
13,QVHLVESGGGLVQAGGSLRLSCAASGRIFTYYAMGWYRQAPGKERELFAGISRSGTSSYYADSVKGSFTISRDNAKNTVYLQMNSLKPEDTAVYYCAADVFRDDVWLDYWGQGTQVTVSS,low polyreactivity
14,QVQLVESGGGLVQAGCSLRLSCAASGRSIAYNAMGWYRQAPGTERELVAAISWSGGSTYYADSVKGRFTISRDNAKNTVYLQMNSLIPEDTAVYYCAKRFAQYRYPYDYWGQGKQVTVSS,high polyreactivity
15,QVQLVESGGGLVQAGGSLRLSCAASGSTIYYNAMGWYRQAPGKERELVAAISKSSSRTYYADSVKGRFTISRDNAKYSVYLQMNSLKPEDTAVYYCAADAVYYHFDYWGQGTQVTVSS,high polyreactivity
16,QVHLVESGGGLVQAGGSLRLSCAASGSTFVGNAMGWNRKAPGKERELVATISNSGGRTYYADSVKGPFTISRDNAKNTVYLEMNSLKPEDTAVYYCAADHPAFGPVYSFDYWGQGTQVTVSS,low polyreactivity
17,QVQLVESGGGLVQAGGSLRLSCAASGFTFGNYVMGWYRQAPGKERELVAAISKRGTSTYYADSVKGRFTISRDNAKNTVYLQMNSLKPEDTAVYYCAADGVYSHKDGLWGQGTQVTVSS,high polyreactivity
18,QVQLVESGGGLVQAGGSLRLSCAASGRIFRRYTMGWYRQAPGKERELVAAISSGGSTYYADSVKGRFTISRDNAKNTVYLQMNSLKPEDTAVYYCNADSRSQPYYPEFDYWGQGTQVTVSS,low polyreactivity
19,QVQLVESGGGLVQAGGSLRLSCAASGRIFSSYAMGWYRQAPGKERELVAGITRGGSTYADSVKGRFTISRDNAKNTVYLQMNSLKPEDTAVYYCAADALIATPSWGKYNYWGQGTQVTVSS,high polyreactivity
20,QVQLVESGGGLVQAGGSLRLSCAAAGSIFYYKTMGWYRQAPGKEREMVAAISWSGGSTSYADSVKGRFTISRDNAKNTVYLQMNSLKPEDTAVYYCNVDYGVHVTARDYWGQGTQVTVSS,low polyreactivity
21,QVQLVESGGGLVQAGGSLRVSCAASGLIFNTYAMGWYRQAPGKERELVAAITVGGGTNYADSVKGLFRISRDNAKNTVYLQMNSLNPADTAVYYCAARLASWPLTYDFQWYEYWGQGTQVTVSS,low polyreactivity
22,QVQLEESGGGLVQAGASLRLSCDASGSIFKKYAMGWYRPAPGKEWELVPAITRGTYYADSVKGRFTISRDNAKNTVYLQMNSLKPEDTAVYYCNREFWGRGYYRVRGEYDYWGQGTQVTVSS,low polyreactivity

row,Sequence,polyreactivity (PSR sort gate)
1,QVQLVESGGRLVQAGGSLRLSCAPSGRIFWAYAMGWYRPAPGKERELVAAITSGGSTYYADSVKGRFTISRDNAKNTVYLQMNSLKPEDTAVYYCAVGSKWVDDSPEDVYWGQGTQVTVSS,low polyreactivity
2,QVQLVESGGGLVQAGGSLRLICAASGSTFATYSMGWYRQAPGKERELVAAITLRGGRTYYADSVKGRFTISRDNAKNTVYLQMNSLKPEDTAVYYCAAEYYYLSFGLTWWRGFDYWGQGTHVTVSS,high polyreactivity
3,QVQLVESGGGLVQAGGSLRLSCAASGSTFPGYAMGWYRQAPGKERELVAAISASGGSTYYADSVKGRFTISRDNAKNTVYLQMNSLKPEDTAVYYCAKVLSRGASAHDYWGQGTQVTVSS,low polyreactivity
4,QVQLVESGGGLVKAGGSLRLSCSASGSTFRSNAMGWYRQAPGKERELVAGISSGGGTYYADSVKGRFTISRDNAKNTVYLQMNSLKPEDTAVYYCAKVVYFGWSVQYYYWGQGTQVTVSS,low polyreactivity
5,QVQLVESGGGLVQAGGSLRLSCAASGRTFYKYGMGWYRQAPGKERELVARINSNGGSTYYADSVKGRFTISRDNAKNTVYLQMNSLKPADTAVYYCARSYVRSYGYYYWGQGPQVTVSS,low polyreactivity
6,QVQLVESGGGLVQAGGSLRLSCAASGFIFGSNAMGWYRQAPGKERELVAAISRSGGSTYYADSVKGRFTISRDNAKNTVYLQMNSLKPEDTAVYYCNVVLWPFVYSWWSYDYWGQGTQVTVSS,high polyreactivity
7,QVQLVESGGGLVQAGGSLRLSCADSGITFWTNTMGWYRQAPGKERELVAVITSGGTTNYADSVKGRFTISRDNAKNTVYLQMNSLKPEDTAVYYCAKKYGYFGLHGYWGQGTQVTVSS,high polyreactivity
8,QVQLVESVGGLVQAGGSLRLSCAASVYMFYDYDMGWYRQAPGKAREFVARITSDGSTYADSVKGRFTISRDNAKNTVYLQMNMLKPEDTAVYYCNRKSRSYFWSVQDSFKYDYWGQGTQVTVSS,low polyreactivity
9,QVQLVDSGGGLVQAGGSLRLSCAASGSIIGLYAMGWYRQAPGKERELVAAITTTGGSTYYADSVKGRFTISRDNAKNTVYLQMNSLKPEDTAVYYCNADYVAYGPEYDYWGQGTQVTVSS,low polyreactivity
10,QVQLVESGGGLDQARGSLRLSCAASGRIFWRYAMGWYRQAPGKERELVASISSGGSTNYADSVKGRFTISRDNAKNTVYLQMNSLKPEDTAVYYCNAQAWHLGVITGRWNRYEYWGQGTQVTVSS,high polyreactivity
11,QVQLVESGGGLVQAGGSLRLSCAASGRTFYVNAMGWYRQAPGKEREFVATITRTGGDTYYADSVKGRFTISRDNAKNTVYLQMNSHKPEDTAVFYCNAEGYTVKYWYSRYDYWGQGTQVTVSS,high polyreactivity
12,QVQLVESGGGLVQAGGSLRLSCAASGRIFWYYAMGWYRQAPGKERELVASITRGNNTYYADSVKGRFTISRDNAKNPVYLQMNSLIPEDTAVYYCNAYRVRYTVDSVFYGYDYWGQGTHVTVSS,high polyreactivity
13,QVQLVESGGGLVQAGGSLRLSCAASGRTLNTYTMGWYRQAPGKERELVAAITWRGGRTYYADSVKRRFTISRDYAKNTVYLQMNSLKPEDTAVYYCAAVRRNKPVGYGYWGQGTQVTVSS,high polyreactivity
14,QVQLVESGGGLVQAGGSLRLSCAASGSTFVRYAMGWDRQAPGTEGSWVAAISVDGDSTYYADSVKGRFTISRDNAKNTVYFQLNSLKPEDTAVYYCNVPLWDYYPRFPLHDYWGQGTQVTVSA,low polyreactivity
15,QVQLVESGGGLVQAGGSLRLSCAASGSIFIANAMGWYRQAPGKERELVATISWSGGRTYYADSVKGRFTISRDNAKNTVYLQMNSLKPEDTAVYYCAAVYGAYDSGYKYNYWGQGTQVTVSS,high polyreactivity
16,QVQLVESGGGLVQAGGSLRLSCAASGFIFRGYAMGWYRQAPGKERELVAAINYSGGSTYYADSVKGRFTISRDNAKNTVYLQMNSLKPEDTAVYYCAAGKRGDDDYWGQGTQVTVSS,high polyreactivity
17,QVQLVESGGGLVQAGGSLRLSCAASGIIFTYYAMGWYRQAPGKERELVASISSSGTSTYYADSVKGRFTISRDYAKNTVYLQMNSLKPEDTAVYYCAADWTGSNGVDYWGQGTQVTVSS,low polyreactivity
18,QVQLVESGGGLVQAGGSLRLSCAASGRTFFENAMGWYRQAPGKEREFVAAISYNGGSTYYADSVKGRFTISRDNAKNTVYLQMNSLKTEDTAVYYCAADPNYGYDYWGQGTQVTVSS,low polyreactivity
19,QVHLVESGGGLVQAGGSLRLSCAASGRIINYYDMGWYRQAPGKERELVAAISRSGGRTYYADSVKGRFTISRDNAKNTVYLQMNSLKPEDNAVYYCAASDYQRYQPTPQYTYYYWGQGTQVTVSS,high polyreactivity
20,QVQLVESGGGLVQAGGSLRLSCAASGRTFKQYAMGCYRQAPGKERELVAVITRTGGSTYYADSVKGRFTISRDNAKNTVYLLMNSLKPEDTAVYYCARYPPRGYIAWRYYDYDYWGQGTQVTVSS,high polyreactivity
21,QVQLGESGGGLVQAGGSLRLSCAASGRTFGYNAIGWYRQAPGKEMELVAVIRSGGSTYYADSVKGRFTISRDNAKNTVYLQMNSLKPEDTAVYYCNADVLPTWYSPELDYWGQGTQVTVSS,low polyreactivity

# Source: the nanobody polyreactivity screen of Harvey et al. (2022)
